Patent US6350430B1, “Melanocortin receptor ligands and methods of using same” (Lion Bioscience Science AG, priority 1997, dated 2002)
Each block holds one molecule with its values, some of them ahead of it. *1 amine or outer side, *2 acyl side, *3 side chain or, on linkers, in order; H or OH if unused. Where a SMILES comes first, the peptide text is derived from it. [ ]: non-standard residue; d: D form. The star is where a group is joined. dPhe(4-125I) = para-(125I)iodo-D-phenylalanine, O=C([C@@H](Cc1ccc([125I])cc1)N[*:1])[*:2]; dPhe(4-Cl) = N[C@H](Cc1ccc(Cl)cc1)C(=O)O; dPhe(4-I) = N[C@H](Cc1ccc(I)cc1)C(=O)O; 2Nal = N[C@@H](Cc1ccc2ccccc2c1)C(=O)O; d2Nal = N[C@H](Cc1ccc2ccccc2c1)C(=O)O; Fmoc = O=C(OCC1c2ccccc2-c2ccccc21)*; Cha = N[C@@H](CC1CCCCC1)C(=O)O; d2Thi = N[C@H](Cc1cccs1)C(=O)O; Nle = CCCC[C@H](N)C(=O)O

What was measured:
[1] = molecular target: MC receptors in rat brain homogenate; test: Melanocortin receptor binding assay using ^125I-HP 467 in rat brain homogenate; conditions: individual tetrapeptides
Procedure: For assays, fine chemicals were obtained from Sigma (St. Louis Mo.) and GF/B plates and MICROSCINT were obtained from Packard Instrument Co. (Meriden Conn.). Frozen rat brains were thawed and the thalamus and hypothalamus were dissected out and weighed. The tissue was homogenized in 40 ml buffer A (50 mM Tris-HCl, 2 mM EDTA, 10 mM CaCl2, 100 μM PMSF, pH 7.4) in a Dounce homogenizer. The homogenate was centrifuged at 39,000×g for 10 min, resuspended in 20 ml fresh buffer and recentrifuged. The pellet was resuspended in 80 ml buffer B (50 mM Tris-HCl, 2 mM EDTA, 10 mM CaCl2, 5 mM MgCl2, 100 μM PMSF, pH 7.4). ^125I-HP 467 was custom labeled by Amersham to a specific activity of 2000 Ci/mmol (Amersham; Arlington Heights IL). Fifty pM ^125I-HP 467 and 0.2 mg protein/ml membrane suspension containing 2 mg/ml BSA was added to each assay tube.
Competition assays were performed using α-MSH, γ1-MSH, γ2-MSH, γ3-MSH and ACTH (4-10) also containing 1 mM phenanthroline, 200 μg/ml bacitracin, and 5 μg/ml leupeptin. Tubes were incubated for 2 hours at 37° C. The assay was terminated by filtration through GF/B filters previously soaked in 5 mg/ml BSA Tris-HCl buffer. The samples were washed with Tris-HCl, dried and counted in Packard Minaxl gamma counter (Packard Instrument Co.).
IC50 values were determined in brain tissue as described in Example III.

[2] = molecular target: T1, MC receptor in mouse B16 cells (Mus musculus, UniProt Q01727); test: MC receptor binding activity in mouse B16 cells; conditions: individual tetrapeptides
T1 construct: endogenous in cells; host or cells: mouse B16 cells
T1 sequence (Q01727 whole entry): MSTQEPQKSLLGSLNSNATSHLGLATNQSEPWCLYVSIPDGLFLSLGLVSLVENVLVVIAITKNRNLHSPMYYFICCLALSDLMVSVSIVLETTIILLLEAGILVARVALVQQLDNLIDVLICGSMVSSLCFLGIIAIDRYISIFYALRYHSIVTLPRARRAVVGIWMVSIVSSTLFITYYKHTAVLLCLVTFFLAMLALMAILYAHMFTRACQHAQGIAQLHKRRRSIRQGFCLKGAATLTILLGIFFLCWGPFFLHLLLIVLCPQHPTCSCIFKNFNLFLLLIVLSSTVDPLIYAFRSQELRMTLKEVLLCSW
Source text: The 36 peptides were screened for MC receptor binding activity in rat brain and in mouse B16 cells.

[3] = molecular target: T2, hMC1 (Homo sapiens, UniProt Q01726); test: Displacement of ^125I-HP 467 in transfected mouse L cells expressing hMC1; conditions: receptor expressed in mouse L cells, read-out: Binding IC50, MC-1
T2 construct: expressed in transfected cells; host or cells: mouse L cells
T2 sequence (Q01726 whole entry): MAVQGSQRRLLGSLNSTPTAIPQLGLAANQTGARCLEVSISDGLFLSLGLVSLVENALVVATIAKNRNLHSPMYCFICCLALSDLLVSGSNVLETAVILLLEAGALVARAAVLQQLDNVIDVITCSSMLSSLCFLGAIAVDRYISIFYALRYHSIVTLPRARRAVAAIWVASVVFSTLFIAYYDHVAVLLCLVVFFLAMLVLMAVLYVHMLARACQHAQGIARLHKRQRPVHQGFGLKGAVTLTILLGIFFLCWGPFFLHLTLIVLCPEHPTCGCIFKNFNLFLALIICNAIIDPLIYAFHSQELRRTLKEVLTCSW

[4] = tested on: Sprague-Dawley rats; test: HP 467 antagonism of HP 228 induced hypophagia (food intake); format: in vivo; conditions: IP BID, HP 228 1.5 mg/kg, HP 467 3.0 mg/kg
Procedure: Male Sprague-Dawley rats weighing 250 to 300 grams were divided into three treatment groups of 8 rats each. The control group received IP saline injections BID (1 ml/kg) at 8 AM and 4 PM. […] After each injection, each rat immediately received a second injection. […] All injections started at 4 PM on day 0 and ended on the afternoon of day 2. Food consumption and body weight measurements were taken daily, each morning.

[5] = molecular target: T3, hMC5 (Homo sapiens, UniProt P33032); test: Displacement of ^125I-HP 467 in HEK 293 cells expressing hMC5; conditions: receptor expressed in HEK 293 cells, read-out: Binding IC50, MC-5
T3 construct: expressed in transfected cells; host or cells: HEK 293 cells
T3 sequence (P33032 whole entry): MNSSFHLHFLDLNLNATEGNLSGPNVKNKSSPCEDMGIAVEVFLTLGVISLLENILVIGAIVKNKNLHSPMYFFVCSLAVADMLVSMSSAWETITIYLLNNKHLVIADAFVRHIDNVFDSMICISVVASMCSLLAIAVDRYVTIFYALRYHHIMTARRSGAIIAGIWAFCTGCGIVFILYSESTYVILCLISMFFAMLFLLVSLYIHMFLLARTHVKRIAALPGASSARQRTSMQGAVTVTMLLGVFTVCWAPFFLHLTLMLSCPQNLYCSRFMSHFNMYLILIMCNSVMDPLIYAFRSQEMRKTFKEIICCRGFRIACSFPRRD

[6] = molecular target: T4, hMC4 (Homo sapiens, UniProt P32245); test: Displacement of ^125I-HP 467 in transfected mouse L cells expressing hMC4; conditions: receptor expressed in mouse L cells, read-out: Binding IC50, MC-4
T4 construct: expressed in transfected cells; host or cells: mouse L cells
T4 sequence (P32245 whole entry): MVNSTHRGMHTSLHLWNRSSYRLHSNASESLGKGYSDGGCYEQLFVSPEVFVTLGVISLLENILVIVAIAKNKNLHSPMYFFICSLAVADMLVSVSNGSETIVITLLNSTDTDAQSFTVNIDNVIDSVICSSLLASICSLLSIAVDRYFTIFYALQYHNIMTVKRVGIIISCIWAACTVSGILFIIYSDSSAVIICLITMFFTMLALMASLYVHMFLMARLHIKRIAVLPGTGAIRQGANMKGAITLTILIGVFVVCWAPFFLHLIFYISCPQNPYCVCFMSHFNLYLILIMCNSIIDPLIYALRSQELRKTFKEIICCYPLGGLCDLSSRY

[7] = molecular target: T5, hMC3 (Homo sapiens, UniProt P41968); test: Displacement of ^125I-HP 467 in transfected mouse L cells expressing hMC3; conditions: receptor expressed in mouse L cells, read-out: Binding IC50, MC-3
T5 construct: expressed in transfected cells; host or cells: mouse L cells
T5 sequence (P41968 whole entry): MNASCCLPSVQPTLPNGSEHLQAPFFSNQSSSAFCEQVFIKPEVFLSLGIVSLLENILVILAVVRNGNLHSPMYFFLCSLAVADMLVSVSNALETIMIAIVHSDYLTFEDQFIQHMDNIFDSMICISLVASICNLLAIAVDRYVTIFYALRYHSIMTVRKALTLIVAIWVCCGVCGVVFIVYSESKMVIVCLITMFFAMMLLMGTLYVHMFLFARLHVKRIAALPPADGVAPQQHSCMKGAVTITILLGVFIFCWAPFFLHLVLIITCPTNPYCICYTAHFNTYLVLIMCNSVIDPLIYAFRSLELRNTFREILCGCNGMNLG

[8] = molecular target: MC receptors in rat brain homogenate; test: Melanocortin receptor binding assay using ^125I-HP 467 in rat brain homogenate; conditions: saturation binding to rat brain membranes
[9] = molecular target: MC receptors in rat brain homogenate (rat); test: competition binding, rat brain membranes
[10] = molecular target: MC receptors of mouse B16 cells (mouse); test: competition binding, mouse B16 cells; tracer not stated
Chain of MC receptors of mouse B16 cells (mouse) (Q01727 whole entry): as the sequence (Q01727 whole entry) above

[11] = molecular target: human melanocortin receptor 1 (human) (UniProt Q01726); test: saturation radioligand binding; mouse L cells expressing MC1
Chain of human melanocortin receptor 1 (human) (Q01726 whole entry): as the sequence (Q01726 whole entry) above

[12] = molecular target: human melanocortin receptor 4 (human) (UniProt P32245); test: saturation radioligand binding; mouse L cells expressing MC4
Chain of human melanocortin receptor 4 (human) (P32245 whole entry): as the sequence (P32245 whole entry) above

[13] = molecular target: human melanocortin receptor 1 (human) (UniProt Q01726); test: saturation radioligand binding; HEK 293 cells expressing MC1
[14] = molecular target: human melanocortin receptor 3 (human) (UniProt P41968); test: saturation radioligand binding; mouse L cells expressing MC3
Chain of human melanocortin receptor 3 (human) (P41968 whole entry): as the sequence (P41968 whole entry) above

[15] = molecular target: human melanocortin receptor 3 (human) (UniProt P41968); test: saturation radioligand binding; HEK 293 cells expressing MC3
[16] = molecular target: MC receptors in rat brain homogenate (rat); test: saturation radioligand binding, rat brain membranes

IC50 [1]: 18 nM
Molecule: CC(=O)N[C@@H](Cc1c[nH]cn1)C(=O)N[C@H](Cc1ccc(Cl)cc1)C(=O)N[C@@H](CCCNC(=N)N)C(=O)N[C@@H](Cc1ccc2ccccc2c1)C(N)=O [AC—H-(pcl-f)-R-(Nal)-NH2] (Ac-H[dPhe(4-Cl)]R[2Nal]-NH2)

IC50 [1]: 469 nM
Molecule: CC(=O)NCCCC[C@H](NC(=O)OCC1c2ccccc2-c2ccccc21)C(=O)N[C@H](Cc1cccs1)C(=O)N[C@@H](CCCNC(=N)N)C(=O)N[C@@H](Cc1ccc2ccccc2c1)C(N)=O [Ac-(αFmLys)-(D-Thi)-R-(Nal)-NH2] (Fmoc-K(Ac)[d2Thi]R[2Nal]-NH2)

IC50 [1]: 427 nM
Molecule: CC(=O)NCCCC[C@H](NC(=O)OCC1c2ccccc2-c2ccccc21)C(=O)N[C@H](Cc1ccc(Cl)cc1)C(=O)N[C@@H](CCCNC(=N)N)C(=O)N[C@@H](Cc1ccc2ccccc2c1)C(N)=O [Ac-(αFmLys)-(pCl-f)-R-(Nal)-NH2] (Fmoc-K(Ac)[dPhe(4-Cl)]R[2Nal]-NH2)

IC50 [1]: > 4000 nM
Molecule: CC(=O)NCCCC[C@H](NC(=O)OCC1c2ccccc2-c2ccccc21)C(=O)N[C@@H](CCCNC(=N)N)C(=O)N[C@@H](CC1CCCCC1)C(=O)N[C@@H](Cc1ccc2ccccc2c1)C(N)=O [Ac-(αFmLys)-R-(L-Cha)-(Nal)-NH2] (Fmoc-K(Ac)R[Cha][2Nal]-NH2)

IC50 [1]: 427 nM
Molecule: CC(=O)NCCCC[C@H](NC(=O)OCC1c2ccccc2-c2ccccc21)C(=O)N[C@@H](CCCNC(=N)N)C(=O)N[C@@H](CC1CCCCC1)C(=O)N[C@H](CCCNC(=N)N)C(N)=O [Ac-(αFmLys)-R-(L-Cha)-r-NH2] (Fmoc-K(Ac)R[Cha][dR]-NH2)

IC50 [1]: 2000 nM
Molecule: CC(=O)NCCCC[C@H](NC(=O)OCC1c2ccccc2-c2ccccc21)C(=O)N[C@@H](CCCNC(=N)N)C(=O)N[C@@H](CCCNC(=N)N)C(=O)N[C@@H](Cc1ccc2ccccc2c1)C(N)=O [Ac-(αFmLys)-R-R-(Nal)-NH2] (Fmoc-K(Ac)RR[2Nal]-NH2)

IC50 [1]: 51 nM
IC50 ([1]; listed as Ac-His-(pCl-f)-Arg-(D-Nal)-NH2): 18 nM
Molecule: CC(=O)N[C@@H](Cc1c[nH]cn1)C(=O)N[C@H](Cc1ccc(Cl)cc1)C(=O)N[C@@H](CCCNC(=N)N)C(=O)N[C@H](Cc1ccc2ccccc2c1)C(N)=O [Ac—H-(pCl-f)-R-(D-Nal)-NH2, Ac-His-(pCl-f)-Arg-(D-Nal)-NH2] (Ac-H[dPhe(4-Cl)]R[d2Nal]-NH2)

IC50 [1]: > 5000 nM
IC50 [2]: 156 nM
Molecule: CC(=O)N[C@@H](Cc1c[nH]cn1)C(=O)N[C@H](Cc1ccc(Cl)cc1)C(=O)N[C@@H](CC1CCCCC1)C(=O)N[C@H](CCCNC(=N)N)C(N)=O [Ac—H-(pcl-f)-(L-Cha)-r-NH2] (Ac-H[dPhe(4-Cl)][Cha][dR]-NH2)

IC50 [3]: 1.49 nM
IC50 [5]: 194 nM
Molecule: CCCC[C@H](NC(C)=O)C(=O)N[C@@H](CCC(N)=O)C(=O)N[C@@H](Cc1c[nH]cn1)C(=O)N[C@H](Cc1ccccc1)C(=O)N[C@@H](CCCNC(=N)N)C(=O)N[C@H](Cc1c[nH]c2ccccc12)C(=O)NCC(N)=O [HP 228, Ac-(Nle)QHfRwG-NH2, reference compound]
Hypophagia (food intake) Change, Day 1 ([4]; Day 1): −6.8%
Hypophagia (food intake) Change, Day 2 ([4]; Day 2): −5.3%

IC50 [3]: 0.23 nM
IC50 [6]: 0.31 nM
IC50 [7]: 0.48 nM
IC50 [5]: 0.46 nM
Molecule: CCCC[C@H](NC(C)=O)C(=O)N[C@@H](CCC(N)=O)C(=O)N[C@@H](Cc1c[nH]cn1)C(=O)N[C@H](Cc1ccc(I)cc1)C(=O)N[C@@H](CCCNC(=N)N)C(=O)N[C@H](Cc1c[nH]c2ccccc12)C(=O)NCC(N)=O [HP 467, Ac-Nle-Gln-His-(p(I)-D-Phe)-Arg-(D-Trp)-Gly-NH2] (Ac-[Nle]QH[dPhe(4-I)]R[dW]G-NH2)

Kd [8]: 0.4 nM
Molecule: CCCC[C@H](NC(C)=O)C(=O)N[C@@H](CCC(N)=O)C(=O)N[C@@H](Cc1c[nH]cn1)C(=O)N[C@H](Cc1ccc(I)cc1)C(=O)N[C@@H](CCCNC(=N)N)C(=O)N[C@H](Cc1c[nH]c2ccccc12)C(=O)NCC(N)=O [^125I-HP 467, Ac-Nle-Gln-His-(p(^125I)-D-Phe)-Arg-(D-Trp)-Gly-NH2] (Ac-[Nle]QH[dPhe(4-I)]R[dW]G-NH2)

IC50 [9]: 18 nM
IC50 [10]: 68 nM
Molecule: AC-H-(pcl-f)-R-(Nal)-NH2 (peptide)

IC50 [9]: 469 nM
Molecule: Ac-(αFmLys)-(D-Thi)-R-(Nal)-NH2 (peptide)

IC50 [9]: 427 nM
IC50 [10]: 41 nM
Molecule: Ac-(αFmLys)-(pCl-f)-R-(Nal)-NH2 (peptide)

IC50 [10]: 1140 nM
Molecule: Ac-(αFmLys)-R-(L-Cha)-(Nal)-NH2 (peptide)

IC50 [9]: 427 nM
IC50 [10]: 185 nM
Molecule: Ac-(αFmLys)-R-(L-Cha)-r-NH2 (peptide)

IC50 [9]: 2000 nM
IC50 [10]: 1420 nM
Molecule: Ac-(αFmLys)-R-R-(Nal)-NH2 (peptide)

IC50 [9]: 51 nM
IC50 [10]: 19 nM
Molecule: Ac-H-(pCl-f)-R-(D-Nal)-NH2 (SEQ ID NO:18) (peptide)

IC50 [10]: 156 nM
Molecule: Ac-H-(pcl-f)-(L-Cha)-r-NH2 (peptide)

Kd [11]: 0.092 nM
Kd [12]: 0.082 nM
Kd [13]: 0.132 nM
Kd [14]: 0.04 nM
Kd [15]: 0.29 nM
Molecule: ^125I-HP 467, Ac-Nle-Gln-His-(p(^125I)-D-Phe)-Arg-(D-Trp)-Gly-NH2

Bmax (fmoles/mg protein) [16]: 21
Kd [16]: 0.4 nM
B1: ^125I-HP 467, Ac-Nle-Gln-His-(p(^125I)-D-Phe)-Arg-(D-Trp)-Gly-NH2 (peptide)
peptide: Ac-[Nle]QH[dPhe(4-125I)]R[dW]G-NH2
